In US20200262917A1 (Daiichi Sankyo, published 2020):

Target: T1, human LAG-3 (full length, expressed on cells) (human, UniProt P18627 23-525)
T1 construct: also called CD223; hLAG-3
T1 sequence: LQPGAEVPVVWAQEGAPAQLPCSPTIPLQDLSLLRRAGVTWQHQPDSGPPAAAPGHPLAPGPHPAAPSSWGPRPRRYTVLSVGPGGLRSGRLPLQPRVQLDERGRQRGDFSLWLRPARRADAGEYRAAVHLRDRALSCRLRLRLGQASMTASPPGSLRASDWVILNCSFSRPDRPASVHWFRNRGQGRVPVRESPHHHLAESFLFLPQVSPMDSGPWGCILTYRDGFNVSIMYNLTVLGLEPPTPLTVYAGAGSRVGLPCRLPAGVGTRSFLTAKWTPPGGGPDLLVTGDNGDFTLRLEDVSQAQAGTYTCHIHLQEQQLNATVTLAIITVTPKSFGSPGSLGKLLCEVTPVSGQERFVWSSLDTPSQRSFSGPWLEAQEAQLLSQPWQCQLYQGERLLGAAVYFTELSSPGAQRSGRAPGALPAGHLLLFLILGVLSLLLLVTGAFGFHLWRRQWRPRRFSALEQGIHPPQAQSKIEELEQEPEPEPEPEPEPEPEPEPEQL
Assay: flow cytometry on human LAG-3-expressing 293T-lacZ cells
Procedure: The flow cytometry was performed according to the method described in Example 1)-4, but an Anti-Human IgG PE conjugate (manufactured by Jackson ImmunoResearch Laboratories, Inc.) diluted 200-fold with a FACS buffer was used as the secondary antibody.

- binding result: binds
B1: humanized anti-human LAG-3 antibody hLA212_H4/L2 (antibody, human IgG1, kappa, V domains shown)
VH: EVQLVESGGGLVQPGGSLRLSCAASGFTYRSYVMAWVRQAPGKGLEWVASISTGGGNTYYRDSVKGRFTISRDNAKNTLYLQMDSLRAEDTAVYYCAEDMSNSGYGLFDYWGQGTLVTVSS
VL: DIQMTQSPSSLSASVGDRVTITCKAGQNVDNNIAWYQQKPGQSPKLLIYYASNRNTGVPSRFSGSGYGTDFTLTISSLQPEDFATYYCQRISNSPYTFGQGTKVEIKR
modifications: defucosylated (sugar chain modification adjusted); peaks of fucose-containing H chain at or below the detection limit in mass spectrometry
notes: defucosylated form (human IgG1/kappa); also called hLA212 antibody H4/L2; low fucose form of hLA212_H3/L2
